Laboratory results: publication PMC6985287, “Novel Immunomodulatory Proteins Generated via Directed Evolution of Variant IgSF Domains” (Frontiers in Immunology, 2019)

Biological target: T1, wild type human ICOSL-Fc fusion protein (human, UniProt O75144 19-256)
T1 construct: ICOS ligand (ICOSL), human, extracellular domain (ECD); secreted with the human immunoglobulin VH5-51 signal peptide; Fc dimer; also called WT ICOSL; WT ICOSL-Fc; source: Expi293F, transient expression, purified (Protein A, SEC); not shown: Fc (IgG1, lacking effector function), C-terminal, kept
T1 sequence (looked up): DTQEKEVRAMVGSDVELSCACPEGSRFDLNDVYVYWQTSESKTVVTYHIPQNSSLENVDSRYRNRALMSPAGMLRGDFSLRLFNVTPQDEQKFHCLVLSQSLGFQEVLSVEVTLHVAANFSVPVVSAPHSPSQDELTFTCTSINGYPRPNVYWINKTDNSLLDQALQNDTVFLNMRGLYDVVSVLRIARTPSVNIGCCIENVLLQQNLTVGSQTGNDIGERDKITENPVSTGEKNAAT
Experiment: BLI; ForteBio Octet QKe; receptor-Fc loaded on the sensor (Protein A sensors in the methods, anti-human capture AHC sensors in the table's footnote); ICOSL-Fc proteins in four-point titrations (100, 50, 25, 12.5 nM); global 1:1 fit; both partners Fc dimers, KD includes avidity
Conditions: both partners purified

Kd: 0.883 nM
B1: human recombinant ICOS-Fc fusion protein (Fc fusion, UniProt Q9Y6W8 21-140, looked up)
chain: EINGSANYEMFIFHNGGVQILCKYPDIVQQFKMQLLKGGQILCDLTKTKGSGNTVSIKSLKFCHSQLSNNSVSFFLYNLDHSHANYYFCNLSIFDPPPFKVTLTGGYLHIYESQLCCQLK
notes: Inducible Costimulator (ICOS), human, soluble Fc fusion; also called soluble ICOS-Fc; source: bought: R&D Systems
